Reference: paper PMC7293217, “TECPR1 promotes aggrephagy by direct recruitment of LC3C autophagosomes to lysosomes” (Nature Communications, 2020)

Molecular target: T1, TECPR1 (purified, on GUVs) (human, UniProt Q7Z6L1 1-1165)
T1 construct: TECPR1, human, full-length cDNA of isoform 1, cloned into pCoofy29; TECPR1 could be labeled on native cysteines (Alexa Fluor 488 or CF405M); also called recombinant TECPR1; source: High Five insect cells, purified (Ni-NTA, PreScission, Superdex 200); not shown: His6, N-terminal, cleaved; MBP, N-terminal, cleaved
T1 sequence (looked up): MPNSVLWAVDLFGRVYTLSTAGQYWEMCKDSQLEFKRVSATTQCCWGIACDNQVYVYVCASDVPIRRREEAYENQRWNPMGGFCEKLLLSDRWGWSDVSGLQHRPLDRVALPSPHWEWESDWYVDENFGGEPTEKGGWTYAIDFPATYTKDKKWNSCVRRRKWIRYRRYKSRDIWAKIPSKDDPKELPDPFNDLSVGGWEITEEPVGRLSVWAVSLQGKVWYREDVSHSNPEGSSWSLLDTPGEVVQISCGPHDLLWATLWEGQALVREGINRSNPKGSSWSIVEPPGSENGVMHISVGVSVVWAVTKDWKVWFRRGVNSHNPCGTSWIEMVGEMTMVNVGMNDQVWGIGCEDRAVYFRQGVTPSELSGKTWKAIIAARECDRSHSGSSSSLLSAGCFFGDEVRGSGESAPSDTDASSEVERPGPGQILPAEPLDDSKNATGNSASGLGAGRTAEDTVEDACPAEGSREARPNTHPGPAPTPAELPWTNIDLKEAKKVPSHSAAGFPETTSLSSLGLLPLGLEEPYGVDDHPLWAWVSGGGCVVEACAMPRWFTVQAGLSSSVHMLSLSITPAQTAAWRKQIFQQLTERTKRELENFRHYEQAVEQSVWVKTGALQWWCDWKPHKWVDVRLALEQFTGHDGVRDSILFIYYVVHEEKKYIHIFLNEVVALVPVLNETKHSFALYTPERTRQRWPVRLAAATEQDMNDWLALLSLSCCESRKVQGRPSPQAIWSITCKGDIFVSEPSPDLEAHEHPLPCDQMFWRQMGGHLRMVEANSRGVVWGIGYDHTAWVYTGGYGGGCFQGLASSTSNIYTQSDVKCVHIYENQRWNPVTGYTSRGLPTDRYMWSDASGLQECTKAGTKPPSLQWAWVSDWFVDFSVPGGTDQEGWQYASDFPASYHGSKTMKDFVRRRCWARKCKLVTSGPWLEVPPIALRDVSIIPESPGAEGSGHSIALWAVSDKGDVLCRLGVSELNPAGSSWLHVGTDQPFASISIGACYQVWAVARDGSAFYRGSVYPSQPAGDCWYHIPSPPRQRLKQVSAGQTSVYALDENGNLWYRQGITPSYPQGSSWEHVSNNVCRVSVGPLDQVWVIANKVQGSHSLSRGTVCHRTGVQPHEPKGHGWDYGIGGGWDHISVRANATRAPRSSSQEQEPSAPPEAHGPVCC
Experiment: recruitment of SUVs to GUVs seen by fluorescence microscopy; reconstitution with purified proteins: Alexa488-LC3C conjugated to SUVs coincubated with GUVs decorated with TECPR1; GUVs without TECPR1 as control
Conditions: both partners purified

B1: Alexa488-labeled LC3C conjugated to SUVs (natural protein, human, UniProt Q9BXW4 1-126, looked up)
chain: MPPPQKIPSVRPFKQRKSLAIRQEEVAGIRAKFPNKIPVVVERYPRETFLPPLDKTKFLVPQELTMTQFLSIIRSRMVLRATEAFYLLVNNKSLVSMSATMAEIYRDYKDEDGFVYMTYASQETFG
modifications: Alexa Fluor 488 C5 maleimide on the introduced N-terminal cysteine; conjugated to SUVs
  binding result: binds
